Among the data in patent US20260248972A1, “DUAL RECEPTOR TARGETING RADIOLIGANDS AND USES THEREOF RELATED APPLICATIONS” (priority 2022, published 2026) are tissue to tissue ratio and tissue uptake values, retold here.

*1 amine or outer side, *2 acyl side, *3 side chain or, on linkers, in order; H or OH if unused. Where a SMILES comes first, the peptide text is derived from it. Bridges are numbered along the chain shown (N, C = ends). Side-chain parts run from the residue outwards. [ ]: non-standard residue; d: D form. The star is where a group is joined. X1 = CC(C)(C)C(=O)CN1C(=O)[C@H](N*)CN(C2CCCCC2)c2ccccc21; DOTA = O=C(O)CN1CCN(CC(=O)O)CCN(CC(=O)*)CCN(CC(=O)O)CC1; 3Abz = Nc1cccc(C(=O)O)c1; CO = O=C([*:1])[*:2]

A short description of this data set: in vivo. To be noted: BALB/c nude, mouse, in vivo, iv, total radioactivity. The method, then:
To a 0.5 M NaOAc buffer (20-50 μL, pH=4.5) was added 4 μL of exemplary or comparator compound in DMSO stock solution (2000 μM) and 2 mCi ^177Lu (ITM Isotope Technologies Munich), the resulting mixture was heated to 95° C. for 15 min. The resulting product was analyzed by radio-TLC and radio-HPLC (column: Shim-pack GIST 5 μm 4.6*150 mm; buffer A: 0.2% formic acid H2O; buffer B: 0.1% formic acid acetonitrile; flow rate: 1 mL/min; gradient: 0-5 min: 10% B to 95% B; then 5-8 min: 95% B). The labelled products were used immediately or diluted by a PBS buffer containing freshly added 3 mg/mL ascorbate.
All animal care and experimental procedure were performed by following the animal protocols approved by the ethics committee of China Institute of Radiation Protection. The BALB/c nude mice (Charles River, Beijing) were utilized for these studies. Mice were below 5 per cage in sterile, microisolator cages under temperature- and humidity-controlled conditions with a 12 h light/12 h dark schedule and fed irradiated rodent chow and reverse osmosis (RO) sterile water ad libitum. In preparation for tumor cell inoculations, mice were anesthetized with isoflurane (RWD Life Science Inc.) at an induction rate of 4% and maintained at a rate of 2.5% with 0.4 L oxygen delivered via precision vaporizer and a non-rebreathing apparatus. These mice received subcutaneous rear flank injections of approximately 4×10^6 AR42J cells ([…] pancreatic cancer cell line) suspended in 200 μL of phosphate-buffered saline (PBS) and Matrigel (Corning) (1/1). Xenografted tumors were allowed to grow for ~2-4 weeks post-inoculation and ranged in mass from 0.05 to 0.50 g (average tumor size, 0.20 g). […] The mice were euthanized, and the tissues and organs were excised from the animals at 4, 24 and 72 h post-injection. The tissues and organs were weighed, counted in a PerkinElmer 2480 WIZARD2 γ counter, and the percent injected dose (% ID) and % ID/g of each organ or tissue were calculated.

Broadly, the tissue uptake is the percentage of the injected dose found per gram of tissue. For `C[C@@H](O)[C@H](NC(=O)[C@@H]1CSSC[C@H](NC(=O)[C@@H](Cc2ccccc2)NC(=O)COCCOCCNC(=O)[C@H](CCCCNC(=O)CC[C@H](NC(=O)CNC(=O)c2cccc(NC(=O)N[C@@H]3CN(C4CCCCC4)c4ccccc4N(CC(=O)C(C)(C)C)C3=O)c2)C(=O)O)NC(=O)COCCOCCNC(=O)COCCOCCNC(=O)COCCOCCNC(=O)COCCOCCNC(=O)COCCOCCNC(=O)CC[C@H](NC(=O)CN2CCN(CC(=O)O)CCN(CC(=O)O)CCN(CC(=O)O)CC2)C(=O)O)C(=O)N[C@@H](Cc2ccc(O)cc2)C(=O)N[C@H](Cc2c[nH]c3ccccc23)C(=O)N[C@@H](CCCCN)C(=O)N[C@@H]([C@@H](C)O)C(=O)N1)C(=O)O` [Compound I-22, DOTA-gE-OEG-OEG-OEG-OEG-OEG-K(-gE-G-Z360)-OEG-f[CYwKTC]T-OH)], the tissue to tissue ratio at 24 h amounted to 0.6 (T/K Tumor/Kidney ratio); 12 (T/L Tumor/Liver ratio); 5 (T/P Tumor/Pancreas ratio); 12 (T/Sp Tumor/Spleen ratio); 7.5 (T/St Tumor/Stomach ratio). Also, the tissue uptake at 24 h was 21.9 %ID/g (uptake Kidney); 1.1 %ID/g (uptake Liver); 2.6 %ID/g (uptake Pancreas); 1.1 %ID/g (uptake Spleen); 1.7 %ID/g (uptake Stomach); 12.7 %ID/g (uptake Tumor).

As for `C[C@@H](O)[C@H](NC(=O)[C@@H]1CSSC[C@H](NC(=O)[C@@H](Cc2ccccc2)NC(=O)[C@H](CCCCNC(=O)c2cccc(NC(=O)N[C@@H]3CN(C4CCCCC4)c4ccccc4N(CC(=O)C(C)(C)C)C3=O)c2)NC(=O)COCCOCCNC(=O)CN2CCN(CC(=O)O)CCN(CC(=O)O)CCN(CC(=O)O)CC2)C(=O)N[C@@H](Cc2ccc(O)cc2)C(=O)N[C@H](Cc2c[nH]c3ccccc23)C(=O)N[C@@H](CCCCN)C(=O)N[C@@H]([C@@H](C)O)C(=O)N1)C(=O)O` [Compound I-35, DOTA-OEG-K(Z360)-f[CYwKTC]T-OH], the tissue to tissue ratio at 24 h came to 2.9 (T/K Tumor/Kidney ratio); 3.5 (T/L Tumor/Liver ratio); 19 (T/P Tumor/Pancreas ratio); 38 (T/Sp Tumor/Spleen ratio); 5.8 (T/St Tumor/Stomach ratio). For the same compound, the tissue uptake at 24 h was determined as 6.1 %ID/g (uptake Kidney); 5.06 %ID/g (uptake Liver); 0.96 %ID/g (uptake Pancreas); 0.47 %ID/g (uptake Spleen); 3.09 %ID/g (uptake Stomach); 17.8 %ID/g (uptake Tumor).

In the case of `C[C@@H](O)[C@H](NC(=O)[C@@H]1CSSC[C@H](NC(=O)[C@@H](Cc2ccccc2)NC(=O)CCOCCOCCOCCNC(=O)[C@H](CCCCNC(=O)c2cccc(NC(=O)N[C@@H]3CN(C4CCCCC4)c4ccccc4N(CC(=O)C(C)(C)C)C3=O)c2)NC(=O)CN2CCN(CC(=O)O)CCN(CC(=O)O)CCN(CC(=O)O)CC2)C(=O)N[C@@H](Cc2ccc(O)cc2)C(=O)N[C@H](Cc2c[nH]c3ccccc23)C(=O)N[C@@H](CCCCN)C(=O)N[C@@H]([C@@H](C)O)C(=O)N1)C(=O)O` [Compound I-38, DOTA-K(Z360)-PEG3-f[CYwKTC]T-OH], the tissue to tissue ratio at 24 h (T/K Tumor/Kidney ratio) was 1.8; the tissue to tissue ratio at 24 h (T/L Tumor/Liver ratio) was 6.1; the tissue to tissue ratio at 24 h (T/P Tumor/Pancreas ratio) was determined as 18; the tissue to tissue ratio at 24 h (T/Sp Tumor/Spleen ratio) turned out to be 72; the tissue to tissue ratio at 24 h (T/St Tumor/Stomach ratio) amounted to 4.2. The tissue uptake at 24 h by setting is: (uptake Kidney) 7.9 %ID/g; (uptake Liver) 2.3 %ID/g; (uptake Pancreas) 0.8 %ID/g; (uptake Spleen) 0.2 %ID/g; (uptake Stomach) 3.4 %ID/g; (uptake Tumor) 14.3 %ID/g.

For `C[C@@H](O)[C@H](NC(=O)[C@@H]1CSSC[C@H](NC(=O)[C@@H](Cc2ccccc2)NC(=O)CCOCCOCCOCCOCCOCCOCCNC(=O)[C@H](CCCCNC(=O)c2cccc(NC(=O)N[C@@H]3CN(C4CCCCC4)c4ccccc4N(CC(=O)C(C)(C)C)C3=O)c2)NC(=O)CN2CCN(CC(=O)O)CCN(CC(=O)O)CCN(CC(=O)O)CC2)C(=O)N[C@@H](Cc2ccc(O)cc2)C(=O)N[C@H](Cc2c[nH]c3ccccc23)C(=O)N[C@@H](CCCCN)C(=O)N[C@@H]([C@@H](C)O)C(=O)N1)C(=O)O` [Compound I-40, DOTA-K(Z360)-PEG6-f[CYwKTC]T-OH], the tissue to tissue ratio at 24 h (T/K Tumor/Kidney ratio) worked out at 2; the tissue to tissue ratio at 24 h (T/L Tumor/Liver ratio) was 5.7; the tissue to tissue ratio at 24 h (T/P Tumor/Pancreas ratio) worked out at 59; the tissue to tissue ratio at 24 h (T/Sp Tumor/Spleen ratio) was determined as 53; the tissue to tissue ratio at 24 h (T/St Tumor/Stomach ratio) worked out at 10. Further, the tissue uptake at 24 h by setting is: (uptake Kidney) 8.9 %ID/g; (uptake Liver) 3.1 %ID/g; (uptake Pancreas) 0.3 %ID/g; (uptake Spleen) 0.3 %ID/g; (uptake Stomach) 1.8 %ID/g; (uptake Tumor) 17.9 %ID/g.

In the case of `C[C@@H](O)[C@H](NC(=O)[C@@H]1CSSC[C@H](NC(=O)[C@@H](Cc2ccccc2)NC(=O)[C@H](CCCCNC(=O)c2cccc(NC(=O)N[C@@H]3CN(C4CCCCC4)c4ccccc4N(CC(=O)C(C)(C)C)C3=O)c2)NC(=O)COCCOCCNC(=O)COCCOCCNC(=O)CN2CCN(CC(=O)O)CCN(CC(=O)O)CCN(CC(=O)O)CC2)C(=O)N[C@@H](Cc2ccc(O)cc2)C(=O)N[C@H](Cc2c[nH]c3ccccc23)C(=O)N[C@@H](CCCCN)C(=O)N[C@@H]([C@@H](C)O)C(=O)N1)C(=O)O` [Compound I-41, DOTA-OEG-OEG-K(Z360)-f[CYwKTC]T-OH], the tissue to tissue ratio at 24 h by setting is: (T/K Tumor/Kidney ratio) 1.7; (T/L Tumor/Liver ratio) 10; (T/P Tumor/Pancreas ratio) 24; (T/Sp Tumor/Spleen ratio) 55; (T/St Tumor/Stomach ratio) 4. The tissue uptake at 24 h by setting is: (uptake Kidney) 9.7 %ID/g; (uptake Liver) 1.5 %ID/g; (uptake Pancreas) 0.7 %ID/g; (uptake Spleen) 0.3 %ID/g; (uptake Stomach) 4 %ID/g; (uptake Tumor) 16.1 %ID/g.

Regarding `C[C@@H](O)[C@H](NC(=O)[C@@H]1CSSC[C@H](NC(=O)[C@@H](Cc2ccccc2)NC(=O)[C@H](CCCCNC(=O)c2cccc(NC(=O)N[C@@H]3CN(C4CCCCC4)c4ccccc4N(CC(=O)C(C)(C)C)C3=O)c2)NC(=O)CCOCCOCCOCCNC(=O)CN2CCN(CC(=O)O)CCN(CC(=O)O)CCN(CC(=O)O)CC2)C(=O)N[C@@H](Cc2ccc(O)cc2)C(=O)N[C@H](Cc2c[nH]c3ccccc23)C(=O)N[C@@H](CCCCN)C(=O)N[C@@H]([C@@H](C)O)C(=O)N1)C(=O)O` [Compound I-48, DOTA-PEG3-K(Z360)-f[CYwKTC]T-OH], the tissue to tissue ratio at 24 h came out at 1.8 (T/K Tumor/Kidney ratio); 2.7 (T/L Tumor/Liver ratio); 14 (T/P Tumor/Pancreas ratio); 19 (T/Sp Tumor/Spleen ratio); 4 (T/St Tumor/Stomach ratio). The tissue uptake at 24 h reads like this: (uptake Kidney) 10.6 %ID/g; (uptake Liver) 7.02 %ID/g; (uptake Pancreas) 1.35 %ID/g; (uptake Spleen) 1.02 %ID/g; (uptake Stomach) 4.75 %ID/g; (uptake Tumor) 18.9 %ID/g.

For `C[C@@H](O)[C@H](NC(=O)[C@@H]1CSSC[C@H](NC(=O)[C@@H](Cc2ccccc2)NC(=O)[C@H](CCCCNC(=O)c2cccc(NC(=O)N[C@@H]3CN(C4CCCCC4)c4ccccc4N(CC(=O)C(C)(C)C)C3=O)c2)NC(=O)CNC(=O)CNC(=O)CN2CCN(CC(=O)O)CCN(CC(=O)O)CCN(CC(=O)O)CC2)C(=O)N[C@@H](Cc2ccc(O)cc2)C(=O)N[C@H](Cc2c[nH]c3ccccc23)C(=O)N[C@@H](CCCCN)C(=O)N[C@@H]([C@@H](C)O)C(=O)N1)C(=O)O` [Compound I-49, DOTA-G-G-K(Z360)-f[CYwKTC]T-OH] ({DOTA}-GGK([3Abz-CO-X1])[dF]CY[dW]KTCT-OH; disulfide 5-10), the tissue to tissue ratio at 24 h (T/K Tumor/Kidney ratio) was determined as 1.5; the tissue to tissue ratio at 24 h (T/L Tumor/Liver ratio) was 1.5; the tissue to tissue ratio at 24 h (T/P Tumor/Pancreas ratio) turned out to be 9.8; the tissue to tissue ratio at 24 h (T/Sp Tumor/Spleen ratio) was 14; the tissue to tissue ratio at 24 h (T/St Tumor/Stomach ratio) came out at 3.2. Besides, the tissue uptake at 24 h came out at 5.93 %ID/g (uptake Kidney); 5.92 %ID/g (uptake Liver); 0.92 %ID/g (uptake Pancreas); 0.62 %ID/g (uptake Spleen); 2.77 %ID/g (uptake Stomach); 8.97 %ID/g (uptake Tumor).
